According to patent US20040018561A1, “Peptide compounds and their use as protease substrates” (priority 2002, published 2004):

Assays:
[1] = tested on: COc1ccc2c(CC(=O)N[C@@H](CCCNC(=N)N)C(=O)N3CCC[C@H]3C(=O)N[C@@H](CC(C)C)C(=O)NCC(=O)N[C@@H](CCCCOCc3ccccc3)C(=O)N[C@@H](CNc3ccc([N+](=O)[O-])cc3[N+](=O)[O-])C(=O)N[C@@H](C)C(=O)N[C@@H](CCCNC(=N)N)C(=O)N[C@@H](CCC(=O)O)C(=O)N[C@@H](CCCNC(=N)N)C(N)=O)cc(=O)oc2c1; experiment: Km and kcat/Km of substrates with MMP-3; format: biochemical; conditions: other: substrate cleavage by MMP-3
[2] = tested on: COc1ccc2c(CC(=O)N[C@@H](CCCNC(=N)N)C(=O)N3CCC[C@@H]3C(=O)N[C@@H](CC(C)C)C(=O)NCC(=O)N[C@@H](CC(C)C)C(=O)N[C@H](CNc3ccc([N+](=O)[O-])cc3[N+](=O)[O-])C(=O)N[C@@H](C)C(=O)N[C@H](CCCNC(=N)N)C(=O)N[C@@H](CCC(=O)O)C(=O)N[C@H](CCCNC(=N)N)C(N)=O)cc(=O)oc2c1; experiment: Km and kcat/Km of substrates with MMP-3; format: biochemical; conditions: other: substrate cleavage by MMP-3
[3] = tested on: COc1ccc2c(CC(=O)N[C@H](CCCNC(=N)N)C(=O)N3CCC[C@H]3C(=O)N[C@@H](CC(C)C)C(=O)NCC(=O)N[C@@H](CCCCOCc3ccccc3)C(=O)N[C@@H](CNc3ccc([N+](=O)[O-])cc3[N+](=O)[O-])C(=O)N[C@@H](C)C(=O)N[C@H](CCCNC(=N)N)C(=O)N[C@H](CCC(=O)O)C(=O)N[C@H](CCCNC(=N)N)C(N)=O)cc(=O)oc2c1; experiment: Km and kcat/Km of substrates with MMP-3; format: biochemical; conditions: other: substrate cleavage by MMP-3
[4] = tested on: COc1ccc2c(CC(=O)N[C@H](CCCNC(=N)N)C(=O)N3CCC[C@H]3C(=O)N[C@@H](CC(C)C)C(=O)NCC(=O)N[C@@H](CCCCOc3ccccc3)C(=O)N[C@@H](CNc3ccc([N+](=O)[O-])cc3[N+](=O)[O-])C(=O)N[C@@H](C)C(=O)N[C@H](CCCNC(=N)N)C(=O)N[C@H](CCC(=O)O)C(=O)N[C@H](CCCNC(=N)N)C(N)=O)cc(=O)oc2c1; experiment: Km and kcat/Km of substrates with MMP-8; format: biochemical; conditions: other: substrate cleavage by MMP-8
[5] = tested on: COc1ccc2c(CC(=O)N[C@@H](CCCNC(=N)N)C(=O)N3CCC[C@H]3C(=O)N[C@@H](CC(C)C)C(=O)NCC(=O)N[C@@H](CCCCOCc3ccccc3)C(=O)N[C@@H](CNc3ccc([N+](=O)[O-])cc3[N+](=O)[O-])C(=O)N[C@@H](C)C(=O)N[C@@H](CCCNC(=N)N)C(=O)N[C@@H](CCC(=O)O)C(=O)N[C@@H](CCCNC(=N)N)C(N)=O)cc(=O)oc2c1; experiment: Km and kcat/Km of substrates with MMP-8; format: biochemical; conditions: other: substrate cleavage by MMP-8
[6] = tested on: COc1ccc2c(CC(=O)N[C@@H](CCCNC(=N)N)C(=O)N3CCC[C@@H]3C(=O)N[C@@H](CC(C)C)C(=O)NCC(=O)N[C@@H](CC(C)C)C(=O)N[C@H](CNc3ccc([N+](=O)[O-])cc3[N+](=O)[O-])C(=O)N[C@@H](C)C(=O)N[C@H](CCCNC(=N)N)C(=O)N[C@@H](CCC(=O)O)C(=O)N[C@H](CCCNC(=N)N)C(N)=O)cc(=O)oc2c1; experiment: Km and kcat/Km of substrates with MMP-8; format: biochemical; conditions: other: substrate cleavage by MMP-8
[7] = tested on: COc1ccc2c(CC(=O)N[C@H](CCCNC(=N)N)C(=O)N3CCC[C@H]3C(=O)N[C@@H](CC(C)C)C(=O)NCC(=O)N[C@@H](CCCCOCc3ccccc3)C(=O)N[C@@H](CNc3ccc([N+](=O)[O-])cc3[N+](=O)[O-])C(=O)N[C@@H](C)C(=O)N[C@H](CCCNC(=N)N)C(=O)N[C@H](CCC(=O)O)C(=O)N[C@H](CCCNC(=N)N)C(N)=O)cc(=O)oc2c1; experiment: Km and kcat/Km of substrates with MMP-8; format: biochemical; conditions: other: substrate cleavage by MMP-8
[8] = tested on: COc1ccc2c(CC(=O)N[C@H](CCCNC(=N)N)C(=O)N3CCC[C@H]3C(=O)N[C@@H](CC(C)C)C(=O)NCC(=O)N[C@@H](CCCCOc3ccccc3)C(=O)N[C@@H](CNc3ccc([N+](=O)[O-])cc3[N+](=O)[O-])C(=O)N[C@@H](C)C(=O)N[C@H](CCCNC(=N)N)C(=O)N[C@H](CCC(=O)O)C(=O)N[C@H](CCCNC(=N)N)C(N)=O)cc(=O)oc2c1; experiment: Km and kcat/Km of substrates with MMP-13; format: biochemical; conditions: other: substrate cleavage by MMP-13
[9] = tested on: COc1ccc2c(CC(=O)N[C@@H](CCCNC(=N)N)C(=O)N3CCC[C@H]3C(=O)N[C@@H](CC(C)C)C(=O)NCC(=O)N[C@@H](CCCCOCc3ccccc3)C(=O)N[C@@H](CNc3ccc([N+](=O)[O-])cc3[N+](=O)[O-])C(=O)N[C@@H](C)C(=O)N[C@@H](CCCNC(=N)N)C(=O)N[C@@H](CCC(=O)O)C(=O)N[C@@H](CCCNC(=N)N)C(N)=O)cc(=O)oc2c1; experiment: Km and kcat/Km of substrates with MMP-13; format: biochemical; conditions: other: substrate cleavage by MMP-13
[10] = tested on: COc1ccc2c(CC(=O)N[C@@H](CCCNC(=N)N)C(=O)N3CCC[C@@H]3C(=O)N[C@@H](CC(C)C)C(=O)NCC(=O)N[C@@H](CC(C)C)C(=O)N[C@H](CNc3ccc([N+](=O)[O-])cc3[N+](=O)[O-])C(=O)N[C@@H](C)C(=O)N[C@H](CCCNC(=N)N)C(=O)N[C@@H](CCC(=O)O)C(=O)N[C@H](CCCNC(=N)N)C(N)=O)cc(=O)oc2c1; experiment: Km and kcat/Km of substrates with MMP-13; format: biochemical; conditions: other: substrate cleavage by MMP-13
[11] = tested on: COc1ccc2c(CC(=O)N[C@H](CCCNC(=N)N)C(=O)N3CCC[C@H]3C(=O)N[C@@H](CC(C)C)C(=O)NCC(=O)N[C@@H](CCCCOCc3ccccc3)C(=O)N[C@@H](CNc3ccc([N+](=O)[O-])cc3[N+](=O)[O-])C(=O)N[C@@H](C)C(=O)N[C@H](CCCNC(=N)N)C(=O)N[C@H](CCC(=O)O)C(=O)N[C@H](CCCNC(=N)N)C(N)=O)cc(=O)oc2c1; experiment: Km and kcat/Km of substrates with MMP-13; format: biochemical; conditions: other: substrate cleavage by MMP-13
[12] = tested on: COc1ccc2c(CC(=O)N[C@H](CCCNC(=N)N)C(=O)N3CCC[C@H]3C(=O)N[C@@H](CC(C)C)C(=O)NCC(=O)N[C@@H](CCCCOc3ccccc3)C(=O)N[C@@H](CNc3ccc([N+](=O)[O-])cc3[N+](=O)[O-])C(=O)N[C@@H](C)C(=O)N[C@H](CCCNC(=N)N)C(=O)N[C@H](CCC(=O)O)C(=O)N[C@H](CCCNC(=N)N)C(N)=O)cc(=O)oc2c1; experiment: purified protein, by the assay type; conditions: other: substrate cleavage by MMP-14
[13] = tested on: COc1ccc2c(CC(=O)N[C@@H](CCCNC(=N)N)C(=O)N3CCC[C@H]3C(=O)N[C@@H](CC(C)C)C(=O)NCC(=O)N[C@@H](CCCCOCc3ccccc3)C(=O)N[C@@H](CNc3ccc([N+](=O)[O-])cc3[N+](=O)[O-])C(=O)N[C@@H](C)C(=O)N[C@@H](CCCNC(=N)N)C(=O)N[C@@H](CCC(=O)O)C(=O)N[C@@H](CCCNC(=N)N)C(N)=O)cc(=O)oc2c1; experiment: purified protein, by the assay type; conditions: other: substrate cleavage by MMP-14
[14] = tested on: COc1ccc2c(CC(=O)N[C@@H](CCCNC(=N)N)C(=O)N3CCC[C@@H]3C(=O)N[C@@H](CC(C)C)C(=O)NCC(=O)N[C@@H](CC(C)C)C(=O)N[C@H](CNc3ccc([N+](=O)[O-])cc3[N+](=O)[O-])C(=O)N[C@@H](C)C(=O)N[C@H](CCCNC(=N)N)C(=O)N[C@@H](CCC(=O)O)C(=O)N[C@H](CCCNC(=N)N)C(N)=O)cc(=O)oc2c1; experiment: purified protein, by the assay type; conditions: other: substrate cleavage by MMP-14
[15] = tested on: COc1ccc2c(CC(=O)N[C@H](CCCNC(=N)N)C(=O)N3CCC[C@H]3C(=O)N[C@@H](CC(C)C)C(=O)NCC(=O)N[C@@H](CCCCOCc3ccccc3)C(=O)N[C@@H](CNc3ccc([N+](=O)[O-])cc3[N+](=O)[O-])C(=O)N[C@@H](C)C(=O)N[C@H](CCCNC(=N)N)C(=O)N[C@H](CCC(=O)O)C(=O)N[C@H](CCCNC(=N)N)C(N)=O)cc(=O)oc2c1; experiment: purified protein, by the assay type; conditions: other: substrate cleavage by MMP-14

MMP-3 (Homo sapiens), sequence (chain, as listed by the source): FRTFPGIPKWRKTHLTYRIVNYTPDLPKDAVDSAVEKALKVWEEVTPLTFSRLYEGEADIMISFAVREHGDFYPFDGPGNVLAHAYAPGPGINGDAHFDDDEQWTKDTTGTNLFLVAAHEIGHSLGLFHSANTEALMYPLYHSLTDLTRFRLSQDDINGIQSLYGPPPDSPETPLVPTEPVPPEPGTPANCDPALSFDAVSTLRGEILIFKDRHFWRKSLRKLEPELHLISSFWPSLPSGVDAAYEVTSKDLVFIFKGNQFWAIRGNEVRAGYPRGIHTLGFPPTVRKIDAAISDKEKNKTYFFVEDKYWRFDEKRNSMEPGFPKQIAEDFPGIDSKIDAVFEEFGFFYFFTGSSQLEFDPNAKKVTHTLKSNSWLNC
MMP-8 (Homo sapiens), sequence (chain, as listed by the source): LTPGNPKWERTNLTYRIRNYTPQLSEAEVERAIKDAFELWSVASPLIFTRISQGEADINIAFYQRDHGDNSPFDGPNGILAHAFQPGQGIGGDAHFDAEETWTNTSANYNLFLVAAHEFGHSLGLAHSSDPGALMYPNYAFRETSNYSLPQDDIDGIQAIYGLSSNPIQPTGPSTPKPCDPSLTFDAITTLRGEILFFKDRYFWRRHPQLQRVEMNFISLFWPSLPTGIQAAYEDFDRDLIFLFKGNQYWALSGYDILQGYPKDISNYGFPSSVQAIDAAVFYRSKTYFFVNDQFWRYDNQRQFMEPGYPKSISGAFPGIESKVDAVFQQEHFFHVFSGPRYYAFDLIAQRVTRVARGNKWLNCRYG

## MMP-3 (Homo sapiens)
[1]
  Km: 85.9 µM
  kcat/Km: 0.48 M^−1s^−1×10^4
[2]
  Km: 14 µM
  kcat/Km: 0.63 M^−1s^−1×10^4
[3]
  Km: 28.9 µM
  kcat/Km: 0.16 M^−1s^−1×10^4

## MMP-8 (Homo sapiens)
[4]
  Km: 4.4 µM
  kcat/Km: 52.2 M^−1s^−1×10^4
[5]
  Km: 9.1 µM
  kcat/Km: 17.9 M^−1s^−1×10^4
[6]
  Km: 16.7 µM
  kcat/Km: 13.9 M^−1s^−1×10^4
[7]
  Km: 3.3 µM
  kcat/Km: 14.6 M^−1s^−1×10^4

## MMP-13 (Homo sapiens)
[8]
  Km: 1.2 µM
  kcat/Km: 293 M^−1s^−1×10^4
[9]
  Km: 0.9 µM
  kcat/Km: 424 M^−1s^−1×10^4
[10]
  Km: 9 µM
  kcat/Km: 29.6 M^−1s^−1×10^4
[11]
  Km: 1.5 µM
  kcat/Km: 158 M^−1s^−1×10^4

## MMP-14 (Homo sapiens)
[12]
  Km: 7.4 µM
  kcat/Km: 15.5 M^−1s^−1×10^4
[13]
  Km: 12 µM
  kcat/Km: 8.3 M^−1s^−1×10^4
[14]
  Km: 27.2 µM
  kcat/Km: 4.1 M^−1s^−1×10^4
[15]
  Km: 23.7 µM
  kcat/Km: 5.09 M^−1s^−1×10^4
